# Results: publication PMC130038
# Read-outs that look alike come from different tables or passages of the source.
# T1: *VLF-1 (HAHIS-VLF-1, very late expression factor 1) (Autographa californica multiple capsid …, UniProt Q06687 1-379)
# T1 sequence: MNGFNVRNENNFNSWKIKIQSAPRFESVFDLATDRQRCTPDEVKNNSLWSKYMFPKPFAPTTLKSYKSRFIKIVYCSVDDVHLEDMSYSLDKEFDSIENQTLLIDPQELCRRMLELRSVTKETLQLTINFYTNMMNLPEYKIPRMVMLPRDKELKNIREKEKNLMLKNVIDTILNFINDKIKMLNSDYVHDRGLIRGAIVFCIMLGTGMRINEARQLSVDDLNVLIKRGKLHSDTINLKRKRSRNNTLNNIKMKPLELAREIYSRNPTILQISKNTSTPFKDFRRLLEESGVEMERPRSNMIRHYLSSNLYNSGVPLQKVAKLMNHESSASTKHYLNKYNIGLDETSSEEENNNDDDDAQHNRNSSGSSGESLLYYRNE
# B1: substrate VII, hairpin hr DNA (v-hr1/v-hr3) (structured_DNA)
# DNA 1: GGGGTTTGTTTTTCAAAACTAAACTCGCTTTACGAGTAGAATTCTACTTGTAACGCACAATCAAGGGATGATGTCAGGGG
# DNA 2: CCCCTGACATCATCCCTTGATTGTGAGTTTAGTTTTGAAAAACAAACCCC
# B2: substrate I, linear single-stranded DNA (4X12-2) (ssDNA)
# DNA: TGGGTGAACCTGCAGGTGGGCAAAGATGTCCTAGCAATGTAATCGTCAAGCTTTATGCCGTT
# B3: substrate II, linear double-stranded DNA (4X12-2/4X12-5) (dsDNA)
# DNA 1: B2 DNA
# DNA 2: AACGGCATAAAGCTTGACGATTACATTGCTAGGACATCTTTGCCCACCTGCAGGTTCACCCA
# B4: substrate IV, three-way junction (4X12-2/4X12-1/4X12-3) (structured_DNA)
# DNA 1: B2 DNA
# DNA 2: GACGCTGCCGAATTCTACCAGTGCCTTGCTAGGACATCTTTGCCCACCTGCAGGTTCACCC
# DNA 3: CAACGGCATAAAGCTTGACGATTACATTGCTAGGACATGCTGTCTAGAGGATCCGACTATCGA
# B5: substrate V, cruciform (4X12-2/4X12-1/4X12-3/4X12-4a) (structured_DNA)
# DNA 1: B2 DNA
# DNA 2: B4 DNA 2
# DNA 3: B4 DNA 3
# DNA 4: ATCGATAGTCGGATCCTCTAGACAGCATGTCCTAGCAAGGCACTGGTAGAATTCGGCAGCGT
# Experiments:
# Test in all cases: EMSA
# [1] = target: T1, *VLF-1 (HAHIS-VLF-1, very late …)
# [2] = target: T1, *VLF-1 (HAHIS-VLF-1, very late …); remark: listed apart in the source
# [3] = target: T1, *VLF-1 (HAHIS-VLF-1, very late …); remark: listed apart in the source
# [4] = target: T1, *VLF-1 (HAHIS-VLF-1, very late …); remark: listed apart in the source
binder,measurement,setting,value
B1,binding result,[1],binds
B2,binding result,[2],no binding
B3,binding result,[2],no binding
B4,binding result,[3],binds
B5,binding result,[4],binds
